Measurements: patent publication US20060058189A1

Target: PpFtsZ2-1-CFP fusion protein (Physcomitrella patens)
Assay: FRET by acceptor photobleaching, confocal microscopy, cotransfected Physcomitrella protoplasts (FtsZ2-1-CFP donor, FtsZ1-1-YFP acceptor)

FRET efficiency: 36.5%
Substance: PpFtsZ1-1-YFP fusion protein
